Publication PMC10562830 (Science translational medicine, 2023)

Key:
[1] = biological target: Chikungunya virus-like particles of the 37997 strain (Chikungunya virus, strain 37997, strain); experiment: cryo-EM structure
[2] = biological target: recombinant p62-E1 protein derived from the CHIKV-LR 2006 strain (Chikungunya virus, LR 2006 …, UniProt Q1H8W5, strain); experiment: ELISA

Row | Binder | binding result [1] | binding result [2]
1 | 506.C01 Fab (Fab, V domains shown) VH: QVQLQESGPGLVKPSQTLSLTCTVSGGSISSDDYYWTWIRLPPGKGLEWIGYIFYTGGTYYNPSLKSRVTISLDRSKNQFSLKLSSVTAADTAVYFCARAPETYCSTTNCYKGYFDSWGQGTLVTVSS VL: DIQMTQSPSSVSASVGDRVTITCRASQGISSWLGWYQQKPGKAPKLLIYAASSLQSGVPSRFSGSGSGTDFTLTISSLQPEDFATYYCQQANSFPRTFGQGTKVEIK | binds | 
2 | 506.C01 (antibody, V domains shown) VH: QVQLQESGPGLVKPSQTLSLTCTVSGGSISSDDYYWTWIRLPPGKGLEWIGYIFYTGGTYYNPSLKSRVTISLDRSKNQFSLKLSSVTAADTAVYFCARAPETYCSTTNCYKGYFDSWGQGTLVTVSS VL: DIQMTQSPSSVSASVGDRVTITCRASQGISSWLGWYQQKPGKAPKLLIYAASSLQSGVPSRFSGSGSGTDFTLTISSLQPEDFATYYCQQANSFPRTFGQGTKVEIK |  | binds
3 | 506.A08 Fab (Fab, V domains shown) VH: EEQLVESGGGLVQPGGSLRLSCAASGFTFSSYSMNWVRQAPGKGLEWVSYISSSSSTIHYADSVKGRFTISRDNAKNSLYLQMNSLRAEDTAVYYCAREGNSGYEPLDYWGQGTLVTVS VL: not shown | binds | 
4 | 506.A08 (antibody, V domains shown) VH: EEQLVESGGGLVQPGGSLRLSCAASGFTFSSYSMNWVRQAPGKGLEWVSYISSSSSTIHYADSVKGRFTISRDNAKNSLYLQMNSLRAEDTAVYYCAREGNSGYEPLDYWGQGTLVTVS VL: not shown |  | binds
